Test results from the supplement of paper PMC10126150.
± gives the standard deviation of the averaged measurements.

Test system: ATP
Assay: switch fluorescence ratio, 500 uM ATP over buffer (Cy3 cluster intensity, sum of 5 cycles each) (fold (ratio)); higher = stronger signal-on switching upon ATP binding; sequences stand for … in TCGTCGGCAGCGTCAGATGTGTATAAGAGACAGTTTTTTTTTTTTTTTTTTTTTTTTT…TC
Conditions: aptamer strand: ATP DNA aptamer (quencher-CACCTGGGGGAGTATTGCGGAGGAAGG + anchor), 100 nM annealed; ATP concentration: 500 uM
Procedure, shortened: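 Values give the fluorescence ratio for each switch-domain sequence, averaged from per-cluster ratios of summed target-cycle to summed buffer-cycle Cy3 intensity. The Cy3-labelled switching-strand clusters sat on a modified Illumina MiSeq flow-cell, were annealed to 100 nM quencher-labelled ATP aptamer, and were imaged in selection buffer, then after 15 min with 500 uM ATP at 22 °C. Five cycles ran with NaOH stripping and re-annealing between them, and clusters outside 100-1000 RFU were excluded.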
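Also: ATP exposure 15 min at 22 °C before imaging.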

Row | Sequence | switch fluorescence ratio
1 | CACGAGGGGA | 1.02 ± 0.057
2 | CACGAGTTAG | 1.0257 ± 0.00055
3 | CACGATTTTT | 0.988 ± 0.022
4 | CACGCGGGGA | 1.01 ± 0.041
5 | CACGCTTTTT | 1.15 ± 0.23
6 | CACGGACAGC | 1.41 ± 0.025
7 | CACGGACTGC | 1.42 ± 0.07
8 | CACGGAGGGG | 0.9875 ± 0.0095
9 | CACGGCTCGC | 1.04 ± 0.015
10 | CACGGCTTGG | 0.9744 ± 0.0044
11 | CACGGGATGG | 1.05 ± 0.026
12 | CACGGGGAAG | 1.02 ± 0.047
13 | CACGGGGGA | 0.974 ± 0.025
14 | CACGGGGGGG | 1.02 ± 0.025
15 | CACGGGTATT | 1.013 ± 0.0028
16 | CACGGGTGGC | 1.152 ± 0.011
17 | CACGGGTTCC | 1.03 ± 0.041
18 | CACGGTTGTT | 1.015 ± 0.0074
19 | CACGGTTTGT | 0.985 ± 0.018
20 | CACGTACGGG | 1.59 ± 0.089
21 | CACGTGGGGG | 1.007 ± 0.006
22 | CACGTGTGGT | 0.988 ± 0.036
23 | CACTACGGGA | 1.05 ± 0.012
24 | CACTAGACGG | 1.45 ± 0.064
25 | CACTAGAGGA | 1.022 ± 0.0057

Row | Sequence | switch fluorescence ratio
26 | CACTAGGCGG | 1.0232 ± 0.00067
27 | CACTGATCCT | 1.032 ± 0.0032
28 | CACTGCCTGC | 1.08 ± 0.036
29 | CACTGGCCGA | 1.035 ± 0.01
30 | CACTGGGGGT | 1.03 ± 0.019
31 | CACTGGGGTT | 0.988 ± 0.017
32 | CACTGTATCG | 1.13 ± 0.063
33 | CACTGTGGGT | 0.9744 ± 0.0046
34 | CACTTTACTT | 1.28 ± 0.072
35 | CACTTTCATG | 1.013 ± 0.0021
36 | CACTTTGGGG | 0.971 ± 0.0062
37 | CAGAACAGCT | 1.029 ± 0.0039
38 | CAGAAGGGGA | 1.09 ± 0.079
39 | CAGAAGTCTC | 1 ± 0.014
40 | CAGAATGGGG | 0.998 ± 0.014
41 | CAGAATTGTG | 1.02 ± 0.012
42 | CAGACGCGGG | 0.99 ± 0.057
43 | CAGACTTCGG | 0.934 ± 0.016
44 | CAGAGATGGG | 0.9997 ± 0.0049
45 | CAGAGATGTT | 1.01 ± 0.032
46 | CAGAGATTTT | 1.005 ± 0.0029
47 | CAGAGGCGTG | 0.9831 ± 0.0079
48 | CAGAGGGGTT | 1 ± 0.021
49 | CAGAGTAGGG | 0.969 ± 0.049
50 | CAGAGTCCTC | 1.01 ± 0.027

Row | Sequence | switch fluorescence ratio
51 | CAGAGTCTGG | 1.04 ± 0.024
52 | CAGAGTGCTG | 1.06 ± 0.03
53 | CAGATATTGG | 1.02 ± 0.023
54 | CAGATATTTC | 1.02 ± 0.021
55 | CAGATGACAG | 0.997 ± 0.012
56 | CAGATGGTTG | 0.9835 ± 0.0041
57 | CAGATGTGAC | 1.057 ± 0.0061
58 | CAGATTATGT | 1.01 ± 0.055
59 | CAGATTGCTC | 0.982 ± 0.037
60 | CAGATTTCTA | 1.02 ± 0.019
61 | CAGCATGGGT | 1.025 ± 0.0034
62 | CAGCCTTATT | 0.997 ± 0.029
63 | CAGCGATTTA | 1.02 ± 0.053
64 | CAGCGCGTCT | 1.07 ± 0.06
65 | CAGCGGCTGT | 0.966 ± 0.026
66 | CAGCGGGGGC | 1.01 ± 0.016
67 | CAGCGGTAGG | 1.03 ± 0.016
68 | CAGCTGGAGC | 1 ± 0.017
69 | CAGCTTTCGG | 1.03 ± 0.048
70 | CAGGAGAGGG | 1.02 ± 0.029
71 | CAGGAGCATT | 3.09 ± 1.5
72 | CAGGAGGGGA | 1.01 ± 0.011
73 | CAGGATAAAT | 0.979 ± 0.06
74 | CAGGATCTTG | 0.974 ± 0.031
75 | CAGGCAGTTT | 1.01 ± 0.016

Row | Sequence | switch fluorescence ratio
76 | CAGGCGGAAA | 0.98 ± 0.015
77 | CAGGCGGGGA | 1.004 ± 0.0074
78 | CAGGCGGTTT | 0.969 ± 0.029
79 | CAGGCTAAGA | 1.026 ± 0.0047
80 | CAGGCTTTGC | 0.992 ± 0.076
81 | CAGGGAGACG | 1.12 ± 0.047
82 | CAGGGAGCAG | 1.05 ± 0.03
83 | CAGGGAGCCT | 0.988 ± 0.05
84 | CAGGGAGGGG | 0.995 ± 0.032
85 | CAGGGAGGGT | 0.983 ± 0.014
86 | CAGGGCAATG | 1.2 ± 0.045
87 | CAGGGCAGCC | 1.01 ± 0.03
88 | CAGGGCCATG | 1.009 ± 0.0014
89 | CAGGGCTGGT | 0.976 ± 0.015
90 | CAGGGGAGGG | 1.06 ± 0.09
91 | CAGGGGGCCA | 0.984 ± 0.033
92 | CAGGGGGGAG | 0.992 ± 0.035
93 | CAGGGGGGGC | 1.01 ± 0.026
94 | CAGGGGGTAC | 1.09 ± 0.086
95 | CAGGGGGTCC | 1.01 ± 0.022
96 | CAGGGGGTGC | 1.03 ± 0.072
97 | CAGGGGGTGT | 1.03 ± 0.032
98 | CAGGGGTGAT | 1.18 ± 0.19
99 | CAGGGGTGGC | 0.9529 ± 0.0021
100 | CAGGGGTTGG | 1.02 ± 0.028
